Results on seven variants are retold here after PMC3575510, “Antibiotic Inducibility of the mexXY Multidrug Efflux Operon of Pseudomonas aeruginosa: Involvement of the MexZ Anti-Repressor ArmZ” (PLoS ONE, 2013).

To fix the notation:
B1: unnamed (parent)
chain 1: MGNYIKPLSAGVALIASDSTWIEGKAIQQLQTTAELDGMCRVVGLPDLHPGRGYPVGAAFFSVGRFYPALVGNDIGCGMALWETGLALGKLSADKLEKRLGNLDLPLDETWSDCIEALDLPAREHWRALGTIGGGNHFAELQQVETVFDQAALHALGLDADRLQLLVHSGSRGLGQAILQEHVSLHGHAGLLDGSLEASAYLARHADALRFAEGNRQLIARRILERLRCDGLELLDINHNLVVPAQVDGVDGWLHRKGATPADQGVLVIPGSRGDYSYLVEPVPSAQSLFSLAHGAGRKWQRGECRERLAARFSVDQLGRTRLGSRVICGDRQLIYEEAPEAYKGIDSVVGALLEAGLLRLVARLKPVLTYKTRGECCR
chain 2: MARKTKEESQKTRDGILDAAERVFLEKGVGTTAMADLADAAGVSRGAVYGHYKNKIEVCLAMCDRAFGQIEVPDENARVPALDILLRAGMGFLRQCCEPGSVQRVLEILYLKCERSDENEPLLRRRELLEKQGQRFGLRQIRRAVERGELPARLDVELASIYLQSLWDGICGTLAWTERLRDDPWNRAERMFRAGLDSLRSSPYLLLADA

Variants of B1 are the subject of the assay. Description: bacterial 2-hybrid assay (β-galactosidase activity in E. coli SU202). To be noted: with partner chain of the complex shown; IPTG-induced cells; read off a plot.
In the case of chain 1 R221W, the response amounted to 680 Miller Units.

Turning to chain 1 R221Q, the response is 510 Miller Units. Consider chain 1 G231D, for which the response was found to be 730 Miller Units.

For chain 1 R216C, the response is 720 Miller Units.

Take chain 1 G252S: the response came out at 700 Miller Units. On to chain 1 G76S, for which the response worked out at 470 Miller Units. Consider chain 1 P68S, for which the response was 610 Miller Units.
